One test has as its target T1, Brm (human, UniProt P51531 1-1590, limits assumed).
T1 construct: also called hBRM
The test can be described thus: binding test of DPF2 truncation mutants; format not described.

A further test deals with BRG1 (human, UniProt P51532 1-1647). The description is as above.

This is an account of results in US20200147120A1 (NATIONAL UNIVERSITY CORPORATION CHIBA UNIVERSITY, published 2020).

Sequence of BRG1 (P51532 whole entry): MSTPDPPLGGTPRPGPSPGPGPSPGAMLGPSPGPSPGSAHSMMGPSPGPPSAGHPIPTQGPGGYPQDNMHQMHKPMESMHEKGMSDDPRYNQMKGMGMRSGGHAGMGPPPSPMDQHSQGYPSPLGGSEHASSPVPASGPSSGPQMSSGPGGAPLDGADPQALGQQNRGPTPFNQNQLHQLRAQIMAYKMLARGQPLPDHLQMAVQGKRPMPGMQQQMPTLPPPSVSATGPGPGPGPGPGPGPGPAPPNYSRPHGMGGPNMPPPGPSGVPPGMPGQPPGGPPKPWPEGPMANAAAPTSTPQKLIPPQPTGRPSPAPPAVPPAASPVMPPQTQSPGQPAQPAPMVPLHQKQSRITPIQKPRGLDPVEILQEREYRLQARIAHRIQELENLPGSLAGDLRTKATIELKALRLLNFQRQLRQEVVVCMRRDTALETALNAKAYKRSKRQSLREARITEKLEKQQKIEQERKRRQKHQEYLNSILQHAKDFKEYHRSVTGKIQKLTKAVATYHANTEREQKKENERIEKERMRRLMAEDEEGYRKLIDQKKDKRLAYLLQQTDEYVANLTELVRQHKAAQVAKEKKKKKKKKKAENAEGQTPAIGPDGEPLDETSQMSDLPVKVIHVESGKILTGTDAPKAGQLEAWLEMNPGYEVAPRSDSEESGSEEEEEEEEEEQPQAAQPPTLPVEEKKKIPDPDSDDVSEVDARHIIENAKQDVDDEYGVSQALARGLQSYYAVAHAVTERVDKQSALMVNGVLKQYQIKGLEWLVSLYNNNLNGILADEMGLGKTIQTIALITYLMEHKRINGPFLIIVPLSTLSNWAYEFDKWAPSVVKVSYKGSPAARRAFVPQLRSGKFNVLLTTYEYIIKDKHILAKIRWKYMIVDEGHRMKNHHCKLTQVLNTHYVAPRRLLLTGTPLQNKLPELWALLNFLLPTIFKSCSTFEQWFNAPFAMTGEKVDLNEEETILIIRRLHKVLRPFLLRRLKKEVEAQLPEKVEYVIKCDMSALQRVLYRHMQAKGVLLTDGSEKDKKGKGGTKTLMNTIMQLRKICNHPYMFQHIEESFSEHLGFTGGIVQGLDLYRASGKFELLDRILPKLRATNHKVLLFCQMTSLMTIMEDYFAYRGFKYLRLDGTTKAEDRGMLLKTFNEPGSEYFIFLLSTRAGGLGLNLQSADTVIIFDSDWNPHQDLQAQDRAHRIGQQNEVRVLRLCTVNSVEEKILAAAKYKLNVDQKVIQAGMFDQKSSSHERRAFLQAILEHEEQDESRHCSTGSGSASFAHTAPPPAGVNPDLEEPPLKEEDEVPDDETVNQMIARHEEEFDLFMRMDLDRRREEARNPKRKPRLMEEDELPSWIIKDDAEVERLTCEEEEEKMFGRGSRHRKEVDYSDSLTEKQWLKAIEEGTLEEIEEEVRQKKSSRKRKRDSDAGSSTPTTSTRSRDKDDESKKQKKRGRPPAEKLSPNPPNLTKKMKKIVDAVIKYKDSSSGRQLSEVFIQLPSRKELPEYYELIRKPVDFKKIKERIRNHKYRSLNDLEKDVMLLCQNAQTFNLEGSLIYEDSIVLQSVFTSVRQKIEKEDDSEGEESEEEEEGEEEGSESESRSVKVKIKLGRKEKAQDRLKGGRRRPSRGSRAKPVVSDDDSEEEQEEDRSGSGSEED
T1 sequence (P51531 whole entry): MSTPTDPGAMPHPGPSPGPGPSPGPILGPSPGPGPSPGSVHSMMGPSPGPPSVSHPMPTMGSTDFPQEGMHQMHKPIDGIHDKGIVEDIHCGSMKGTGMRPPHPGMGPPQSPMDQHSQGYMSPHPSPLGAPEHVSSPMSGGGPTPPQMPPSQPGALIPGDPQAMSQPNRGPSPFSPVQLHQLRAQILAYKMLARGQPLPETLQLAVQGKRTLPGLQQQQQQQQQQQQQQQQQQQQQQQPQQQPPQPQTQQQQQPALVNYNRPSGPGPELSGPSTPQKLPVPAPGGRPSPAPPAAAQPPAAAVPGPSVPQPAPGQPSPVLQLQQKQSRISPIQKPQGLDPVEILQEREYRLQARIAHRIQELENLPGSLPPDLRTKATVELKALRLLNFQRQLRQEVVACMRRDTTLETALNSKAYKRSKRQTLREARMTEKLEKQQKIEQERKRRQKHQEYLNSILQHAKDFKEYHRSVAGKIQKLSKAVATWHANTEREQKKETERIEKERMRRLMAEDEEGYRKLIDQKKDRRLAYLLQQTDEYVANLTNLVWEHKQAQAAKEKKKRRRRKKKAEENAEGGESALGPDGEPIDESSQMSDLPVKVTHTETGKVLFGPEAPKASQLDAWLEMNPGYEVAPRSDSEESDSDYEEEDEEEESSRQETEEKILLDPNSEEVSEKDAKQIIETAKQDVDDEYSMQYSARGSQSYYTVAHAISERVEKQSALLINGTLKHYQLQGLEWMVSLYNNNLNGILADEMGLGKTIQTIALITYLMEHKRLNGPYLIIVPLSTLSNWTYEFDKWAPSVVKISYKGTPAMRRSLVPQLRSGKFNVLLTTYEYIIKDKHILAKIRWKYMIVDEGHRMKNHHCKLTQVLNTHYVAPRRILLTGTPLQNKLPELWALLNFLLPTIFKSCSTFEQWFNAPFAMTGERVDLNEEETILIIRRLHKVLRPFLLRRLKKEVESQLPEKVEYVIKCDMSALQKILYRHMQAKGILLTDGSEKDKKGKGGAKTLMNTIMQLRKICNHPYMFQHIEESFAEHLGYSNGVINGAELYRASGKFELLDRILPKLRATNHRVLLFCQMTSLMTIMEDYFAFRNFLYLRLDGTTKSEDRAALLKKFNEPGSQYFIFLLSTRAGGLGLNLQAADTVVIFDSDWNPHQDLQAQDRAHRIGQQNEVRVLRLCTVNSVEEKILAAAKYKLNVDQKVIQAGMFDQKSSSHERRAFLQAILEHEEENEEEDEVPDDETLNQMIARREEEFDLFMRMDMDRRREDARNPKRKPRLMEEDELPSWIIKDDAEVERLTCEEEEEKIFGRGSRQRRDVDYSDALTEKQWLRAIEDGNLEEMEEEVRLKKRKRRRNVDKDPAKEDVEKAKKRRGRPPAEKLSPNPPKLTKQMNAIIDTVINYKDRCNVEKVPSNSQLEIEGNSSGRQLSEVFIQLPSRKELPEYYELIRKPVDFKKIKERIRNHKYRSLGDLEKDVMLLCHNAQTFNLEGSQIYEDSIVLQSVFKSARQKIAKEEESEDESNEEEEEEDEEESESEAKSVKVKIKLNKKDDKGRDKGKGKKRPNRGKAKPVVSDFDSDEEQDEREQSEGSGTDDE

B1: DPF2-CT1 (CT1 peptide of DPF2, amino acid residues 1 to 84) (peptide)
peptide: MAAVVENVVKLLGEQYYKDAMEQCHNYNARLCAERSVRLPFLDSQTGVAQSNCYIWMEKRHRGPGLASGQLYSYPARRWRKKRR
notes: One of a series of truncation mutants of DPF2
As to B1, the binding result in the test with Brm and in the test with BRG1 was “binds” throughout.
